This is an account of results in patent publication US20260265321A1, “PEPTIDE AND POLYPEPTIDE INHIBITING THE NF-KB SIGNALING PATHWAY” (Centre National de la Recherche Scientifique, priority 2023, published 2026).

Test [1] deals with T1, G1-IKKβ, full-length wt IKKβ fused to the Gluc1 fragment (human, UniProt O14920 1-756).
T1 construct: Expressed in HEK293T cells for GPCA; full-length; also called Gluc1-IKKβ; not shown: Gluc1 fragment of Gaussia princeps luciferase and flexible 20 amino acid linker, N-terminal
T1 sequence (looked up): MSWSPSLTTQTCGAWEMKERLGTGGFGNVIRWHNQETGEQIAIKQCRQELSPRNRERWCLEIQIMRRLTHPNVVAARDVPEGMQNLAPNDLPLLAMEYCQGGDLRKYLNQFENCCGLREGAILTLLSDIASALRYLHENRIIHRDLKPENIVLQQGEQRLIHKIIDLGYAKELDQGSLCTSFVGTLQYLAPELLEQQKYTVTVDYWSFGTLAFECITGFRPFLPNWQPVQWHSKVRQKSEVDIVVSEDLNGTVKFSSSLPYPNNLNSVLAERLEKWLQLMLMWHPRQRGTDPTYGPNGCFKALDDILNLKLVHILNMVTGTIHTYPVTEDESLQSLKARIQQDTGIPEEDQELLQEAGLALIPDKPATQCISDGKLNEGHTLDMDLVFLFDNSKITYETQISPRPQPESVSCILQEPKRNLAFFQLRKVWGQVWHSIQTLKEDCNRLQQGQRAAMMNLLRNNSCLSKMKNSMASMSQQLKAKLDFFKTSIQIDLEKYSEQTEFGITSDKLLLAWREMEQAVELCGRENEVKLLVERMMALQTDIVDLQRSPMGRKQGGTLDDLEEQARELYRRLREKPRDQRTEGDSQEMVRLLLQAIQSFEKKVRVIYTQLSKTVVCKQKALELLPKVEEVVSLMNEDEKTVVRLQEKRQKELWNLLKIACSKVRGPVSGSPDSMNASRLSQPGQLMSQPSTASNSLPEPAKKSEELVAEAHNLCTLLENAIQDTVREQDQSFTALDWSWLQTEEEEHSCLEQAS
Put plainly: GPCA (Gaussia princeps protein complementation assay) in HEK293T cells, NLR, mean ± SD of triplicates. The method, then: (§1) HEK293T cells were transfected using the reverse transfection method. Transfection mixes containing 100 ng of pSPICA-N2 and 100 ng of pSPICA-N1 plasmids expressing test proteins plus JetPEI® (Polyplus transfection) were dispensed in white 96-well plates. HEK293T cells were then seeded on the DNA mixes at a concentration of 4.2×10^4 cells per well. 48 hours after transfection, cells were washed with 50 μl of PBS and lysed with 40 μl of Renilla lysis buffer (Promega, E2820) for 30 minutes with agitation. Gaussia princeps luciferase enzymatic activity was measured using a Berthold Centro LB960 luminometer by injecting 50 μl per well of luciferase substrate reagent (Promega, E2820) and counting luminescence for 10 seconds. Results are expressed as a fold change normalized over the sum of controls, specified herein as normalized luminescence ratio (NLR) 29. For a given protein pair A/B, NLR=(Gluc1-A+Gluc2-B)/[(Gluc1-A+Gluc2)+(Gluc1+Gluc2-B)]. All interactions were measured in three independent experiments, with each experiment being carried out in triplicate. The expression levels of Gluc1- and Gluc2-fused proteins were checked by Western blotting. 24 hours post-transfection, HEK293T cells were collected, lysed by incubation on ice and centrifuged. Aliquots of cleared supernatants were loaded onto an 10% SDS-PAGE gel.

The target of test [2] is T2, G1-IKKα, full-length wt IKKα fused to the Gluc1 fragment (human, UniProt O15111 1-745).
T2 construct: Expressed in HEK293T cells for GPCA; full-length; also called Gluc1-IKKα; not shown: Gluc1 fragment of Gaussia princeps luciferase and flexible 20 amino acid linker, N-terminal
T2 sequence (looked up): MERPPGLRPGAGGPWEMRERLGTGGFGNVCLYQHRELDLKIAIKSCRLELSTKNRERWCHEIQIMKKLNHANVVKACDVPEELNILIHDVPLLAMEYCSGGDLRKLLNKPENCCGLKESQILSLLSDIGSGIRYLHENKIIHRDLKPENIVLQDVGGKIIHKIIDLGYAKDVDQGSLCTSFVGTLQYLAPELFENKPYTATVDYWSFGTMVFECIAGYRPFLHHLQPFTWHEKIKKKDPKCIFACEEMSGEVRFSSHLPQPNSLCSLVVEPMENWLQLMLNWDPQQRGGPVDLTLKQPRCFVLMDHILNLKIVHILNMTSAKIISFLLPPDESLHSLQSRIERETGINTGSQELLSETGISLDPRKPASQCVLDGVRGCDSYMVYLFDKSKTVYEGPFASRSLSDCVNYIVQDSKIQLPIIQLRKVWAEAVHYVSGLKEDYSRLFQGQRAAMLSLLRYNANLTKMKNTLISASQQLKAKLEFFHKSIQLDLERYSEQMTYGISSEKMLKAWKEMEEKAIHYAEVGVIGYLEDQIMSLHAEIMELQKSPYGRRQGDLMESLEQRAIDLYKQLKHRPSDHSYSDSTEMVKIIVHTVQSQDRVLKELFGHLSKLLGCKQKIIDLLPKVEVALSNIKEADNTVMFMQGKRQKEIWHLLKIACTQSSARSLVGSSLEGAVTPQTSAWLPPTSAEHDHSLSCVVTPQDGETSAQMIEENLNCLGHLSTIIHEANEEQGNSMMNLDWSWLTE
The description is as above. The method, then: as §1

The target of test [3] is T3, G1-IKKβ L654D/W655D (GPCA construct) (human, UniProt O14920 1-756).
T3 construct: not shown: Gluc1 fragment of Gaussia princeps luciferase and flexible 20 amino acid linker, N-terminal
T3 sequence (looked up): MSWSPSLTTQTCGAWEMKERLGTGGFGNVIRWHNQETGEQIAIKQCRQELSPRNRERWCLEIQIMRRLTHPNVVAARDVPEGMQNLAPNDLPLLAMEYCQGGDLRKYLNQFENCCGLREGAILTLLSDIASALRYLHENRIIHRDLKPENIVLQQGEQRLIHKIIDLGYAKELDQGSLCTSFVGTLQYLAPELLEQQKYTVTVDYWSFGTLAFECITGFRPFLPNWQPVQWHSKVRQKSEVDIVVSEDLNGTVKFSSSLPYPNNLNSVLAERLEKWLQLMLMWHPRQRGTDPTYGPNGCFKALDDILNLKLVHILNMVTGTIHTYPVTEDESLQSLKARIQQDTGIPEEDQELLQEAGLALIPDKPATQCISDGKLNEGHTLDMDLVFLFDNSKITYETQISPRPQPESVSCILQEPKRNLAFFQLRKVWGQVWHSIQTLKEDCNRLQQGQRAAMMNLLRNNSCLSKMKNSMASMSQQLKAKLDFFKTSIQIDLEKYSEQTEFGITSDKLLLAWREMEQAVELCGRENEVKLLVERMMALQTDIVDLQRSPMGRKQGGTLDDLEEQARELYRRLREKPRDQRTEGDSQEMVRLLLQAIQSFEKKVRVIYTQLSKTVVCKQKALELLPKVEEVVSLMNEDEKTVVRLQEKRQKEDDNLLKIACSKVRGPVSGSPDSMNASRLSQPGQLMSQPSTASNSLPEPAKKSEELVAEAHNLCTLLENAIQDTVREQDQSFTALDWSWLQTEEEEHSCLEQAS
Put plainly: GPCA in HEK293T cells. As for the experimental part: as §1

For test [4], the target named is T4, IKKα(10-667) S176E/S180E homodimer, 6×His tag removed (human, UniProt O15111 10-667).
T4 construct: also called purified IKKα
T4 sequence (looked up): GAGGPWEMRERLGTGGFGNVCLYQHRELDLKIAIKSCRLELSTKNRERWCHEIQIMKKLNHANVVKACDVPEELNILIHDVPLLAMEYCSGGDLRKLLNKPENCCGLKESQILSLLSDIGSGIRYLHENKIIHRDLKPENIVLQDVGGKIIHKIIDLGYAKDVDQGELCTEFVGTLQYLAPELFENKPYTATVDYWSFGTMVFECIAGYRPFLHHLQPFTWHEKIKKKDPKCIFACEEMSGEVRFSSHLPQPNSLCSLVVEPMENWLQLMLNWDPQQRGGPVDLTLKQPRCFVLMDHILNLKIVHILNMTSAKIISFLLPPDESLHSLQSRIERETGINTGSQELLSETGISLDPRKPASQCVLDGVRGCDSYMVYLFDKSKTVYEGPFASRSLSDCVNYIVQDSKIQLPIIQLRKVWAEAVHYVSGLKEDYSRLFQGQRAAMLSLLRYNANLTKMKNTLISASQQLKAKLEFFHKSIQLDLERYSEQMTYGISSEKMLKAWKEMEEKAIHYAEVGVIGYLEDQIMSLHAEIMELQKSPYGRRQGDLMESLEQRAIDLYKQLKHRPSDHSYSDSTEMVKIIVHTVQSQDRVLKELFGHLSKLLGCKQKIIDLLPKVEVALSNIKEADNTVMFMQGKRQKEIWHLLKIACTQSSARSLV
Put plainly: ITC, 25 °C, 1:1 model; values called estimates; table value; footnote calls it an estimate. The method, then: (§2) All experiments were performed in ITC buffer (20 mM HEPES pH 8.0, 150 mM NaCl, 1 mM TCEP) unless otherwise stated. […] Just before the ITC experiments, IKKα or IKKβ samples were concentrated, incubated at room temperature for 30 minutes and centrifuged at 11000 g to remove eventual precipitate. The final concentrations of IKKα and IKKβ in the sample cell varied between 22 and 50 μM depending on the measurement. […] The concentration of peptides in the syringe varied between 220 and 975 μM depending on the measurement.
(§3) All ITC experiments were performed at 25° C. The data were fitted to a 1:1 binding model. […] All data were processed using NITPIC software and global fitting of two datasets was carried out using SEDPHAD.

In test [5] the target is T4, IKKα(10-667) S176E/S180E homodimer, …. Put plainly: ITC, given as a lower bound. In general terms: Isothermal titration calorimetry measures the heat released or taken up as one component is titrated into another.
Test [6] shares this target. Description: ITC, 25 °C, 1:1 model; values called estimates. The method, then: as §2, §3

Some results are limits rather than exact numbers.

B1: G2-IκBα(73-317) (other, UniProt P25963 73-317, looked up)
chain: DGDSFLHLAIIHEEKALTMEVIRQVKGDLAFLNFQNNLQQTPLHLAVITNQPEIAEALLGAGCDPELRDFRGNTPLHLACEQGCLASVGVLTQSCTTPHLHSILKATNYNGHTCLHLASIHGYLGIVELLVSLGADVNAQEPCNGRTALHLAVDLQNPDLVSLLLKCGADVNRVTYQGYSPYQLTWGRPSTRIQQQLGQLTLENLQMLPESEDEESYDTESEFTEFTEDELPYDDCVFGGQRLTL
notes: range 73-317; Expressed in HEK293T cells for GPCA; also called N-terminal truncated IκBα (73-317) construct; not shown: Gluc2 fragment of Gaussia princeps luciferase and flexible 20 amino acid linker, N-terminal
For B1, the binding result in test [1] is given as “binds”; in test [2], “binds”; in test [3], “no binding”.

For orientation: Kd means the constant that tells how readily two partners part at equilibrium. With LSSANSLYDDIECFLMELEQPA [synthetic IRF7 pep], the dissociation constant Kd in test [4] was approximately 90 µM. The molecule further yielded a Kd in test [5] of more than 90 µM. In addition, in test [6], the TΔS is -1.2 kcal/mol, the ΔG was -5.5 kcal/mol and the ΔH is -6.7 kcal/mol.
